Drawing on PMC10696396, “HilE represses the activity of the Salmonella virulence regulator HilD via a mechanism distinct from that of intestinal long-chain fatty acids” (The Journal of Biological Chemistry, 2023), this text covers Kd and stoichiometry N for one substance.

Experiment [1] concerns the target EYFP-HilD (Salmonella enterica) (UniProt P0CL08). Nature of the experiment: MST; HilE titrated against EYFP-HilD preincubated with 1% DMSO; MST on-time 1.5 s, 25 °C.
Experiment [2] shares this target. Nature of the experiment: MST; HilE titrated against 50 nM EYFP-HilD; 25 °C, 0.05% Pluronic F-127, MST on-time 1.5 s.
In experiment [3] the target is HilD (full-length, unfused) (Salmonella enterica) (UniProt P0CL08). The experiment is described as follows: SEC-MALS; Superdex 75 Increase 10/300 GL, 50 mM NaH2PO4 pH 7.0, 200 mM NaCl, 0.5 ml/min; protein concentrations of 100 μM (Fig. 4, D and E). (In general: SEC sorts molecules by how far they enter the pores of the column.)

A word on the Kd: it is the constant that tells how readily two partners part at equilibrium. The low end stands for higher affinity, the high end for lower affinity. What is called stoichiometry N is a count of units in the complex or per binding partner. For the substance HilE (natural protein), the Kd was determined as 1.63 µM in experiment [1] and 1.82 µM in experiment [2]. Moreover, the stoichiometry N in experiment [3] was found to be 1.
